The results in this text go back to PMC12808100 (Nature Communications, 2025).

The target in assay [1] is T1, HA-POLE2 (human, UniProt P56282 1-527).
T1 construct: POLE2, residues 1-527; also called HA-POLE2 wild type; source: HEK293T, transfected, in cell extract; not shown: HA, N-terminal, kept
Put plainly: native holdup (nHU) titration with dot blot; DONSON_71-88-saturated streptavidin resin mixed with control resin at various proportions; extracts of HEK293T cells expressing HA-tagged POLE2 variants; 4 °C, 2 h; depletion quantified with an antibody against the HA tag; apparent. As to conditions: one partner purified.

In assay [2] the target is T2, His6-AviTag-MBP-TEV-POLE2 (human, UniProt P56282 1-527, biotin on the AviTag (BirA co-expressed, biotin in the medium)).
T2 construct: POLE2, residues 1-527; a TEV site lies between MBP and POLE2; also called His6-avi-MBP-tagged POLE2; avi-His6-MBP-POLE2; source: E. coli BL21(DE3), co-expressed with BirA, purified (HisTrap, MBPtrap, Q HP); not shown: His6, N-terminal, kept; AviTag, N-terminal, kept; MBP, N-terminal, kept
Put plainly: fluorescence polarisation; competitive; dilution series of the non-fluorescent DONSON peptide added to 50 nM fluoDONSON and 3.85 μM POLE2 protein; same buffer as the direct experiment. The settings on record: both partners purified.

Assay [3] concerns the target T2, His6-AviTag-MBP-TEV-POLE2. Put plainly: native holdup (nHU) titration with dot blot; purified His6-avi-MBP-tagged POLE2 as bait on resin; extracts of HEK293T cells transfected with HA-tagged full length proteins; 4 °C, 2 h; anti-HA dot blot; apparent. The settings on record: one partner purified.
In assay [4] the target is T2, His6-AviTag-MBP-TEV-POLE2. The assay can be described thus: fluorescence polarisation; direct; dilution series of MBP-POLE2 added to 50 nM fluoDONSON peptide; 20 mM Hepes pH 7.5, 150 mM NaCl, 0.5 mM TCEP, 0.01% Tween 20. The settings on record: both partners purified. A general note: Fluorescence polarisation rises when a labelled molecule tumbles more slowly, as on binding a larger partner.

*: point of attachment. carboxyfluorescein = carboxyfluorescein on the N-terminus (no linker); Biotin = O=C1N[C@H]2[C@H](CS[C@H]2CCCCC(=O)*)N1; TTDS = Trioxatridecan-succinamic acid linker

T2 sequence (P56282 whole entry, the tested form may be a part): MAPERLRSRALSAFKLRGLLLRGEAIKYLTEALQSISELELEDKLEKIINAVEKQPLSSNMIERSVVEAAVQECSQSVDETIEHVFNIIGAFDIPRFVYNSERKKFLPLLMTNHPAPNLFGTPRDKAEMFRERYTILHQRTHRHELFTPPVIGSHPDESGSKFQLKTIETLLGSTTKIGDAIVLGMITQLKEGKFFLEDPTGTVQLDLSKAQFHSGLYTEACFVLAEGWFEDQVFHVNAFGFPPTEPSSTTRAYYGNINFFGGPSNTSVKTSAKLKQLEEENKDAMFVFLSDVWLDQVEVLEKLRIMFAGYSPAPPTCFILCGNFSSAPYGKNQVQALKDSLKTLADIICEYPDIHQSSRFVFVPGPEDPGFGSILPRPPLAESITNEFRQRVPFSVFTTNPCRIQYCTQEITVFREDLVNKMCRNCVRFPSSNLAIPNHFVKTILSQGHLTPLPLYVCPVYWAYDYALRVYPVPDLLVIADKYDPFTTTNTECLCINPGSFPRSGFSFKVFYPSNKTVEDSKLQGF
T1 sequence (P56282 whole entry, the tested form may be a part): as above

B1: NPF motif peptide of DONSON (residues 71-88) (peptide)
peptide: {Biotin-TTDS}-GPAAARRNPFARLDNRPR-NH2
notes: Protein downstream neighbor of Son (DONSON), residues 71-88; also called DONSON_71-88; DONSON NPF motif; source: synthetic peptide (ABI 443 A synthesizer, Fmoc), HPLC purified
B1: the results for the Kd in assay [1] and in assay [2] were 0.28 µM and 13 µM, respectively.

B2: HA-ERCC6L, full length, NPF motif mutated to KAF (natural protein, human, UniProt Q2NKX8 1-1250, looked up)
chain: MEASRRFPEAEALSPEQAAHYLRYVKEAKEATKNGDLEEAFKLFNLAKDIFPNEKVLSRIQKIQEALEELAEQGDDEFTDVCNSGLLLYRELHNQLFEHQKEGIAFLYSLYRDGRKGGILADDMGLGKTVQIIAFLSGMFDASLVNHVLLIMPTNLINTWVKEFIKWTPGMRVKTFHGPSKDERTRNLNRIQQRNGVIITTYQMLINNWQQLSSFRGQEFVWDYVILDEAHKIKTSSTKSAICARAIPASNRLLLTGTPIQNNLQELWSLFDFACQGSLLGTLKTFKMEYENPITRAREKDATPGEKALGFKISENLMAIIKPYFLRRTKEDVQKKKSSNPEARLNEKNPDVDAICEMPSLSRKNDLIIWIRLVPLQEEIYRKFVSLDHIKELLMETRSPLAELGVLKKLCDHPRLLSARACCLLNLGTFSAQDGNEGEDSPDVDHIDQVTDDTLMEESGKMIFLMDLLKRLRDEGHQTLVFSQSRQILNIIERLLKNRHFKTLRIDGTVTHLLEREKRINLFQQNKDYSVFLLTTQVGGVGLTLTAATRVVIFDPSWNPATDAQAVDRVYRIGQKENVVVYRLITCGTVEEKIYRRQVFKDSLIRQTTGEKKNPFRYFSKQELRELFTIEDLQNSVTQLQLQSLHAAQRKSDIKLDEHIAYLQSLGIAGISDHDLMYTCDLSVKEELDVVEESHYIQQRVQKAQFLVEFESQNKEFLMEQQRTRNEGAWLREPVFPSSTKKKCPKLNKPQPQPSPLLSTHHTQEEDISSKMASVVIDDLPKEGEKQDLSSIKVNVTTLQDGKGTGSADSIATLPKGFGSVEELCTNSSLGMEKSFATKNEAVQKETLQEGPKQEALQEDPLESFNYVLSKSTKADIGPNLDQLKDDEILRHCNPWPIISITNESQNAESNVSIIEIADDLSASHSALQDAQASEAKLEEEPSASSPQYACDFNLFLEDSADNRQNFSSQSLEHVEKENSLCGSAPNSRAGFVHSKTCLSWEFSEKDDEPEEVVVKAKIRSKARRIVSDGEDEDDSFKDTSSIKAFNTSLFQFSSVKQFDASTPKNDISPPGRFFSSQIPSSVNKSMNSRRSLASRRSLINMVLDHVEDMEERLDDSSEAKGPEDYPEEGVEESSGEASKYTEEDPSGETLSSENKSSWLMTSKPSALAQETSLGAPEPLSGEQLVGSPQDKAAEATNDYETLVKRGKELKECGKIQEALNCLVKALDIKSADPEVMLLTLSLYKQLNNN
notes: ERCC6L, residues 1-1250; also called mutated version of ERCC6L; source: HEK293T, transfected, in cell extract; not shown: HA, N-terminal, kept
Take B2: the “fold weaker affinity than the wild type” value in assay [3] was found to be 10 fold.

B3: fluoDONSON peptide (residues 71-88) (peptide)
peptide: carboxyfluorescein-GPAAARRNPFARLDNRPR-NH2
notes: DONSON, residues 71-88; also called fluorescein-labeled DONSON_71-88 peptide; fluorescent NPF motif peptide; source: synthetic peptide, HPLC purified
In assay [4], B3 displayed a Kd of 16 µM.

B4: HA-TTF2, full length, N-terminal NPF motif mutated to KAF (natural protein, human, UniProt Q9UNY4 1-1162, looked up)
chain: MEEVRCPEHGTFCFLKTGVRDGPNKGKSFYVCRADTCSFVRATDIPVSHCLLHEDFVVELQGLLLPQDKKEYRLFFRCIRSKAEGKRWCGSIPWQDPDSKEHSVSNKSQHASETFHHSSNWLRKAFKVLDKNQEPALWKQLIKGEGEEKKADKKQREKGDQLFDQKKEQKPEMMEKDLSSGLVPKKKQSVVQEKKQEEGAEIQCEAETGGTHKRDFSEIKSQQCQGNELTRPSASSQEKSSGKSQDVQRESEPLREKVTQLLPQNVHSHNSISKPQKGGPLNKEYTNWEAKETKAKDGPSIQATQKSLPQGHFQERPETHSVPAPGGPAAQAAPAAPGLSLGEGREAATSSDDEEEDDVVFVSSKPGSPLLFDSTLDLETKENLQFPDRSVQRKVSPASGVSKKVEPSDPVARRVYLTTQLKQKKSTLASVNIQALPDKGQKLIKQIQELEEVLSGLTLSPEQGTNEKSNSQVPQQSHFTKTTTGPPHLVPPQPLPRRGTQPVGSLELKSACQVTAGGSSQCYRGHTNQDHVHAVWKITSEAIGQLHRSLESCPGETVVAEDPAGLKVPLLLHQKQALAWLLWRESQKPQGGILADDMGLGKTLTMIALILTQKNQEKKEEKEKSTALTWLSKDDSCDFTSHGTLIICPASLIHHWKNEVEKRVNSNKLRVYLYHGPNRDSRARVLSTYDIVITTYSLVAKEIPTNKQEAEIPGANLNVEGTSTPLLRIAWARIILDEAHNVKNPRVQTSIAVCKLQACARWAVTGTPIQNNLLDMYSLLKFLRCSPFDEFNLWRSQVDNGSKKGGERLSILTKSLLLRRTKDQLDSTGRPLVILPQRKFQLHHLKLSEDEETVYNVFFARSRSALQSYLKRHESRGNQSGRSPNNPFSRVALEFGSEEPRHSEAADSPRSSTVHILSQLLRLRQCCCHLSLLKSALDPMELKGEGLVLSLEEQLSALTLSELRDSEPSSTVSLNGTFFKMELFEGMRESTKISSLLAELEAIQRNSASQKSVIVSQWTNMLKVVALHLKKHGLTYATIDGSVNPKQRMDLVEAFNHSRGPQVMLISLLAGGVGLNLTGGNHLFLLDMHWNPSLEDQACDRIYRVGQQKDVVIHRFVCEGTVEEKILQLQEKKKDLAKQVLSGSGESVTKLTLADLRVLFGI
notes: TTF2, residues 1-1162; only the N-terminal NPF motif mutated; also called TTF2 mutant; source: HEK293T, transfected, in cell extract; not shown: HA, N-terminal, kept
In the case of B4, the “fold weaker affinity than the wild type” value in assay [3] is approximately 4 fold.
